Results as given in patent US20170015742A1 (published 2017).
Residue numbers refer to the chain shown, from its start. Blank lines part the entries; values can stand above or below the binder they belong to.

Key:
Human PDGF-BB = biological target: T1, Human PDGF-BB (human, UniProt P01127 82-190); assay: SPR (Biacore), method of Example 1.1
T1 construct: also called hPDGF-BB
Protocol: (§1) Unreacted moieties on the biosensor surface were blocked with ethanolamine. For kinetic analysis, rate equations derived from the 1:1 Langmuir binding model were fitted simultaneously to multiple antigen injections (using global fit analysis) with the use of Scrubber 2 (BioLogic Software), Biacore Biaevaluation 4.0.1 software or Biacore T100 Evaluation software. Purified antibodies or DVD-Ig molecules were diluted in running buffer for capture across goat anti-human Fc reaction surfaces. Antibodies or DVD-Ig molecules to be captured as a ligand (1 μg/ml) were injected over reaction matrices at a flow rate of 10 μl/minute. During the assay, all measurements were referenced against the capture surface alone (i.e., with no captured antibody or DVD-Ig molecule). […] The equilibrium dissociation constant KD (M) of the reaction between antibodies and the target antigen was then calculated from the kinetic rate constants by the following formula: KD=Koff/Kₒₙ. Binding was recorded as a function of time and kinetic rate constants were calculated. In this assay, on-rates as fast as 10⁶M⁻¹s⁻¹ and off-rates as slow as 10⁻⁶ s⁻¹ could be measured.

Human VEGF-A 165 = biological target: T2, Human VEGF-A 165 (human, UniProt P15692 207-395); assay: SPR (Biacore), method of Example 1.1
T2 construct: also called hVEGF165
T2 sequence (P15692 other isoform, or with tags, fused parts or gaps limits assumed): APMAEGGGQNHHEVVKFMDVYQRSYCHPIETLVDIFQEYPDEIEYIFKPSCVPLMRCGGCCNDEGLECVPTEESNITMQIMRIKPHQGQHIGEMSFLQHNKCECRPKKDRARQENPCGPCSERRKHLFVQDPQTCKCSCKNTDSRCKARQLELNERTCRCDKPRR
Protocol: as §1

T1 sequence (P01127 82-190 limits assumed): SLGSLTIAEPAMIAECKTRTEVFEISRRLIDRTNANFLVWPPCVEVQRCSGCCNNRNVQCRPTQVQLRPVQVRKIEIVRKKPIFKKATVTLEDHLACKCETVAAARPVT

B1: CODV011 (bispecific antibody, human IgG1, kappa, L234A L235A)
heavy: EVQLVQSGSELKKPGASVKVSCKASGYTFTNYGMYWVRQAPGQGLEWMGWINTETGKPTYADDFKGRFVFSLDTSVSTAYLQISSLKAEDTAVYYCARTNYYYRSYIFYFDYWGQGTMVTVSSGGGGSGGGGSEFVLTQSPGTLSLSPGERATLSCERSSGDIGDSYVSWYQQKPGQAPRLVIYADDQRPSGIPDRFSGSGSGTDFTLTISRLEPEDFAVYYCQSYDINIDIVFGGGTKVEIKGGGSGASTKGPSVFPLAPSSKSTSGGTAALGCLVKDYFPEPVTVSWNSGALTSGVHTFPAVLQSSGLYSLSSVVTVPSSSLGTQTYICNVNHKPSNTKVDKKVEPKSCDKTHTCPPCPAPEAAGGPSVFLFPPKPKDTLMISRTPEVTCVVVDVSHEDPEVKFNWYVDGVEVHNAKTKPREEQYNSTYRVVSVLTVLHQDWLNGKEYKCKVSNKALPAPIEKTISKAKGQPREPQVYTLPPSREEMTKNQVSLTCLVKGFYPSDIAVEWESNGQPENNYKTTPPVLDSDGSFFLYSKLTVDKSRWQQGNVFSCSVMHEALHNAYTQKSLSLSPGK
light: EVTLRESGPALVKPTQTLTLTCTFSGFSLSTYGMGVGWIRQPPGKALEWLANIWWDDDKYYNPSLKNRLTISKDTSKNQVVLTMTNMDPVDTATYYCARIESIGTTYSFDYWGQGTMVTVSSGGGGSGGGGSDTVLTQSPATLSLSPGERATLSCRASESVSTHMHWYQQKPGQAPRLLIYGASNLESGVPARFSGSGSGTDFTLTISSLEPEDFAVYFCQQSWNDPFTFGQGTKLEIKGGGSGRTVAAPSVFIFPPSDEQLKSGTASVVCLLNNFYPREAKVQWKVDNALQSGNSQESVTEQDSKDSTYSLSSTLTLSKADYEKHKVYACEVTHQGLSSPVTKSFNRGEC
notes: Anti-human VEGF-A/anti-human PDGF-BB cross-over DVD-Ig (CO-DVD-Ig); also called PR-1575521
- Kd (Human PDGF-BB): 0.0018 nM
- kon (Human PDGF-BB): 3.8e+07 M⁻¹ s⁻¹
- Kd (Human VEGF-A 165): 0.038 nM
- kon (Human VEGF-A 165): 1.1e+06 M⁻¹ s⁻¹

B4: CODV014 (bispecific antibody, human IgG1, kappa, L234A L235A)
heavy: EVQLVQSGSELKKPGASVKVSCKASGYTFTNYGMYWVRQAPGQGLEWMGWINTETGKPTYADDFKGRFVFSLDTSVSTAYLQISSLKAEDTAVYYCARTNYYYRSYIFYFDYWGQGTMVTVSSGGGGSEFVLTQSPGTLSLSPGERATLSCERSSGDIGDSYVSWYQQKPGQAPRLVIYADDQRPSGIPDRFSGSGSGTDFTLTISRLEPEDFAVYYCQSYDINIDIVFGGGTKVEIKGGSASTKGPSVFPLAPSSKSTSGGTAALGCLVKDYFPEPVTVSWNSGALTSGVHTFPAVLQSSGLYSLSSVVTVPSSSLGTQTYICNVNHKPSNTKVDKKVEPKSCDKTHTCPPCPAPEAAGGPSVFLFPPKPKDTLMISRTPEVTCVVVDVSHEDPEVKFNWYVDGVEVHNAKTKPREEQYNSTYRVVSVLTVLHQDWLNGKEYKCKVSNKALPAPIEKTISKAKGQPREPQVYTLPPSREEMTKNQVSLTCLVKGFYPSDIAVEWESNGQPENNYKTTPPVLDSDGSFFLYSKLTVDKSRWQQGNVFSCSVMHEALHNAYTQKSLSLSPGK
light: EVTLRESGPALVKPTQTLTLTCTFSGFSLSTYGMGVGWIRQPPGKALEWLANIWWDDDKYYNPSLKNRLTISKDTSKNQVVLTMTNMDPVDTATYYCARIESIGTTYSFDYWGQGTMVTVSSGGGGSGGGDTVLTQSPATLSLSPGERATLSCRASESVSTHMHWYQQKPGQAPRLLIYGASNLESGVPARFSGSGSGTDFTLTISSLEPEDFAVYFCQQSWNDPFTFGQGTKLEIKGGGSGRTVAAPSVFIFPPSDEQLKSGTASVVCLLNNFYPREAKVQWKVDNALQSGNSQESVTEQDSKDSTYSLSSTLTLSKADYEKHKVYACEVTHQGLSSPVTKSFNRGEC
notes: Anti-human VEGF-A/anti-human PDGF-BB cross-over DVD-Ig (CO-DVD-Ig); also called PR-1571826
- Kd (Human PDGF-BB): 0.0024 nM
- kon (Human PDGF-BB): 5.5e+07 M⁻¹ s⁻¹
- Kd (Human VEGF-A 165): 0.036 nM
- kon (Human VEGF-A 165): 2.2e+06 M⁻¹ s⁻¹

B5: CODV015 (bispecific antibody, human IgG1, kappa, L234A L235A)
heavy: EVQLVQSGSELKKPGASVKVSCKASGYTFTNYGMYWVRQAPGQGLEWMGWINTETGKPTYADDFKGRFVFSLDTSVSTAYLQISSLKAEDTAVYYCARTNYYYRSYIFYFDYWGQGTMVTVSSGGGGSGGGEFVLTQSPGTLSLSPGERATLSCERSSGDIGDSYVSWYQQKPGQAPRLVIYADDQRPSGIPDRFSGSGSGTDFTLTISRLEPEDFAVYYCQSYDINIDIVFGGGTKVEIKGGGSGASTKGPSVFPLAPSSKSTSGGTAALGCLVKDYFPEPVTVSWNSGALTSGVHTFPAVLQSSGLYSLSSVVTVPSSSLGTQTYICNVNHKPSNTKVDKKVEPKSCDKTHTCPPCPAPEAAGGPSVFLFPPKPKDTLMISRTPEVTCVVVDVSHEDPEVKFNWYVDGVEVHNAKTKPREEQYNSTYRVVSVLTVLHQDWLNGKEYKCKVSNKALPAPIEKTISKAKGQPREPQVYTLPPSREEMTKNQVSLTCLVKGFYPSDIAVEWESNGQPENNYKTTPPVLDSDGSFFLYSKLTVDKSRWQQGNVFSCSVMHEALHNAYTQKSLSLSPGK
light: EVTLRESGPALVKPTQTLTLTCTFSGFSLSTYGMGVGWIRQPPGKALEWLANIWWDDDKYYNPSLKNRLTISKDTSKNQVVLTMTNMDPVDTATYYCARIESIGTTYSFDYWGQGTMVTVSSGGGGSGGGDTVLTQSPATLSLSPGERATLSCRASESVSTHMHWYQQKPGQAPRLLIYGASNLESGVPARFSGSGSGTDFTLTISSLEPEDFAVYFCQQSWNDPFTFGQGTKLEIKGGSRTVAAPSVFIFPPSDEQLKSGTASVVCLLNNFYPREAKVQWKVDNALQSGNSQESVTEQDSKDSTYSLSSTLTLSKADYEKHKVYACEVTHQGLSSPVTKSFNRGEC
notes: Anti-human VEGF-A/anti-human PDGF-BB cross-over DVD-Ig (CO-DVD-Ig); also called PR-1571827
- Kd (Human PDGF-BB): 0.0013 nM
- kon (Human PDGF-BB): 7e+07 M⁻¹ s⁻¹
- Kd (Human VEGF-A 165): 0.024 nM
- kon (Human VEGF-A 165): 2.7e+06 M⁻¹ s⁻¹

B6: CODV021 (bispecific antibody, human IgG1, kappa, L234A L235A)
heavy: B5 heavy with D163E
light: B5 light
notes: Anti-human VEGF-A/anti-human PDGF-BB cross-over DVD-Ig (CO-DVD-Ig); also called PR-1577053
- Kd (Human PDGF-BB): 0.0019 nM
- kon (Human PDGF-BB): 6.1e+07 M⁻¹ s⁻¹
- Kd (Human VEGF-A 165): 0.018 nM
- kon (Human VEGF-A 165): 3.8e+06 M⁻¹ s⁻¹

Continued by falling Kd (Human PDGF-BB), values first:

- Kd (Human PDGF-BB): 0.004 nM
- kon (Human PDGF-BB): 4.1e+07 M⁻¹ s⁻¹
- Kd (Human VEGF-A 165): 6.6 nM
- kon (Human VEGF-A 165): 57000 M⁻¹ s⁻¹
B7: CODV010 (bispecific antibody, human IgG1, kappa, L234A L235A)
heavy: EVTLRESGPALVKPTQTLTLTCTFSGFSLSTYGMGVGWIRQPPGKALEWLANIWWDDDKYYNPSLKNRLTISKDTSKNQVVLTMTNMDPVDTATYYCARIESIGTTYSFDYWGQGTMVTVSSGEVQLVQSGSELKKPGASVKVSCKASGYTFTNYGMYWVRQAPGQGLEWMGWINTETGKPTYADDFKGRFVFSLDTSVSTAYLQISSLKAEDTAVYYCARTNYYYRSYIFYFDYWGQGTMVTVSSGGASTKGPSVFPLAPSSKSTSGGTAALGCLVKDYFPEPVTVSWNSGALTSGVHTFPAVLQSSGLYSLSSVVTVPSSSLGTQTYICNVNHKPSNTKVDKKVEPKSCDKTHTCPPCPAPEAAGGPSVFLFPPKPKDTLMISRTPEVTCVVVDVSHEDPEVKFNWYVDGVEVHNAKTKPREEQYNSTYRVVSVLTVLHQDWLNGKEYKCKVSNKALPAPIEKTISKAKGQPREPQVYTLPPSREEMTKNQVSLTCLVKGFYPSDIAVEWESNGQPENNYKTTPPVLDSDGSFFLYSKLTVDKSRWQQGNVFSCSVMHEALHNAYTQKSLSLSPGK
light: DTVLTQSPATLSLSPGERATLSCRASESVSTHMHWYQQKPGQAPRLLIYGASNLESGVPARFSGSGSGTDFTLTISSLEPEDFAVYFCQQSWNDPFTFGQGTKLEIKGGGSGGGEFVLTQSPGTLSLSPGERATLSCERSSGDIGDSYVSWYQQKPGQAPRLVIYADDQRPSGIPDRFSGSGSGTDFTLTISRLEPEDFAVYYCQSYDINIDIVFGGGTKVEIKGGGSGRTVAAPSVFIFPPSDEQLKSGTASVVCLLNNFYPREAKVQWKVDNALQSGNSQESVTEQDSKDSTYSLSSTLTLSKADYEKHKVYACEVTHQGLSSPVTKSFNRGEC
notes: Anti-human VEGF-A/anti-human PDGF-BB cross-over DVD-Ig (CO-DVD-Ig); also called PR-1571823

- Kd (Human PDGF-BB): 0.0025 nM
- kon (Human PDGF-BB): 4.6e+07 M⁻¹ s⁻¹
- Kd (Human VEGF-A 165): 0.02 nM
- kon (Human VEGF-A 165): 2.9e+06 M⁻¹ s⁻¹
B3: CODV016 (bispecific antibody, human IgG1, kappa, L234A L235A)
heavy: B5 heavy
light: EVTLRESGPALVKPTQTLTLTCTFSGFSLSTYGMGVGWIRQPPGKALEWLANIWWDDDKYYNPSLKNRLTISKDTSKNQVVLTMTNMDPVDTATYYCARIESIGTTYSFDYWGQGTMVTVSSGGGGSDTVLTQSPATLSLSPGERATLSCRASESVSTHMHWYQQKPGQAPRLLIYGASNLESGVPARFSGSGSGTDFTLTISSLEPEDFAVYFCQQSWNDPFTFGQGTKLEIKGGSRTVAAPSVFIFPPSDEQLKSGTASVVCLLNNFYPREAKVQWKVDNALQSGNSQESVTEQDSKDSTYSLSSTLTLSKADYEKHKVYACEVTHQGLSSPVTKSFNRGEC
notes: Anti-human VEGF-A/anti-human PDGF-BB cross-over DVD-Ig (CO-DVD-Ig); also called PR-1571828

- Kd (Human PDGF-BB): 0.0015 nM
- kon (Human PDGF-BB): 7e+07 M⁻¹ s⁻¹
- Kd (Human VEGF-A 165): 0.028 nM
- kon (Human VEGF-A 165): 2.7e+06 M⁻¹ s⁻¹
B2: CODV012 (bispecific antibody, human IgG1, kappa, L234A L235A)
heavy: B5 heavy
light: B4 light
notes: Anti-human VEGF-A/anti-human PDGF-BB cross-over DVD-Ig (CO-DVD-Ig); also called PR-1571824
